Test results taken from patent US20230357398A1 (MorphoSys, published 2023).

Assays:
[1] = biological target: T1, cynomolgus CD3 epsilon, cell surface expressed (cynomolgus monkey PBMCs) (cynomolgus monkey, UniProt Q95LI5 22-198); assay: flow cytometry on cynomolgus monkey PBMCs, IgG titration
T1 construct: On the cells CD3 epsilon is part of the native CD3/TCR complex; also called cyno CD3

[2] = biological target: T1, cynomolgus CD3 epsilon, cell surface …; assay: flow cytometry (FACS) on cynomolgus PBMCs
Experimental: (§1) Antibody staining was measured using a multiformat Flow Cytometer (NovoCyte, Agilent Technologies) and analyzed using NovoExpress software (Version 1.5.0). Lymphocytes were identified by morphological gating of forward and side scatters. EC₅₀ values were calculated using 4-parameter non-linear regression analysis in Prism software (GraphPad Software Inc., version 8.4.3).

[3] = biological target: T2, human CD3 epsilon, cell surface expressed (human PBMCs / human T cells) (human, UniProt P07766 23-207); assay: flow cytometry (FACS) on human PBMCs
T2 construct: On the cells CD3 epsilon is part of the native CD3/TCR complex; also called CD3 on human PBMCs
Experimental: as §1

[4] = biological target: T3, cyCD3e(1-109)_F-chLys_avi (cynomolgus monkey); assay: BLI (Octet HTX); FabCys captured on Fab-specific sensor, CD3e antigen as analyte; 1:1 model
T3 construct: also called cynomolgus monkey CD3 epsilon antigen
Experimental: (§2) Affinity determination by determining kinetic rate constants was performed on an Octet HTX (FortéBIO, Sartorius AG) instrument as described below.
(§3) The different Fab-Cys samples diluted in assay buffer (D-PBS, 0.05% (v/v) PS 20, 0.1% (w/v) BSA) were captured onto Fab-specific BLI sensors with a loading level of approx. 0.5 nm. […] A blank sample with assay buffer was included for referencing, i.e. correcting for dissociation of captured antibody. The association phase was recorded for 300 s, followed by a dissociation phase of 900 s. After each cycle, the biosensors were regenerated two times with 10 mM Glycine HCl pH 1.7 to remove bound ligand/antibody complex, while maintaining the integrity of the capture surface. Between regeneration steps, biosensors were washed with assay buffer for 20 s.
(§4) The sensorgrams were fitted using Octet Data Analysis Software 10.0 (FortéBio, Sartorius AG) to determine kₒₙ and koff rate constants (using a 1:1 binding model), which were used to calculate KD.

[5] = biological target: T4, Mature human CD3e(1-118)_FLAG-chLys_Avi (human); assay: as above
T4 construct: also called human CD3 epsilon antigen
Experimental: as §2, §3, §4

[6] = biological target: T3, cyCD3e(1-109)_F-chLys_avi; assay: BLI (Octet HTX); FabCys captured on Fab-specific sensor, CD3e antigen as analyte; 1:1 model; dissociation approaching assay limit
Experimental: as §2, §3, §4

[7] = biological target: T3, cyCD3e(1-109)_F-chLys_avi; assay: BLI (Octet HTX); FabCys captured on Fab-specific sensor, CD3e antigen as analyte; 1:1 model; less precise, dissociation at assay limit
Experimental: as §2, §3, §4

[8] = biological target: T3, cyCD3e(1-109)_F-chLys_avi; assay: BLI (Octet HTX); FabCys captured on Fab-specific sensor, CD3e antigen as analyte; 1:1 model; rate set to assay limit
Experimental: as §2, §3, §4

T1 sequence (Q95LI5 22-198 limits assumed): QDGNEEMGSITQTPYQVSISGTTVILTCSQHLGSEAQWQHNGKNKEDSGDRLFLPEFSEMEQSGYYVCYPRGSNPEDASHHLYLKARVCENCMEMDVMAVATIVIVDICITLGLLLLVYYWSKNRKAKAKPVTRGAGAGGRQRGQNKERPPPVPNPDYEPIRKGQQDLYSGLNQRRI
T4 sequence (chain, as listed by the source limits assumed): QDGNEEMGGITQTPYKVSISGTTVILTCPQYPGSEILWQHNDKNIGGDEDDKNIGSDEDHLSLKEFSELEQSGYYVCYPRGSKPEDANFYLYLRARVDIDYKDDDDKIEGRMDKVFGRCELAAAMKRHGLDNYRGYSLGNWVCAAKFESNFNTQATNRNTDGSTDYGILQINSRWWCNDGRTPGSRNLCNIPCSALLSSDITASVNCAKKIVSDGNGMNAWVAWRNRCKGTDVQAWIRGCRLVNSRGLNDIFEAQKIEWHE
T2 sequence (P07766 23-207 limits assumed): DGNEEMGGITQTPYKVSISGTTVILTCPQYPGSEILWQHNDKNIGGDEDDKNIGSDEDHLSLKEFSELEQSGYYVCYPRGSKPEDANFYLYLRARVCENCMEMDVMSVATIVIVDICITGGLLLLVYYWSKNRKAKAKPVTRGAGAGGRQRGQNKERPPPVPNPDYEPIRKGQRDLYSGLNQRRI
T3 sequence (chain, as listed by the source limits assumed): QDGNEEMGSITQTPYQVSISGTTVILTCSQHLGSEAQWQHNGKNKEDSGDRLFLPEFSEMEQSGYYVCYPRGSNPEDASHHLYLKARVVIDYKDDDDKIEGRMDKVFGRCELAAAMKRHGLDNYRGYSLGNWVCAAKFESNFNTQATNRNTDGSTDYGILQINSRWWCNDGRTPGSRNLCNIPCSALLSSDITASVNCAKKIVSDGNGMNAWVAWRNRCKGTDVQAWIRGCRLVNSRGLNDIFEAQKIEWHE

B1: MAB-1 (parental) (antibody, V domains shown)
VH: EVQLVESGGGLVQPGGSLRLSCAASGFTFSSYWMSWVRQAPGKGLEWVANIKQDGSEKYYVDSVKGRFTISRDNAKNSLYLQMNSLRAEDTAVYYCARGYSAEFAHRSGLDVWGQGTLVTVSS
VL: QSVLTQPPSASGTPGQRVTISCSGSSSNIGSNYVYWYQQLPGTAPKLLIYRNNQRPSGVPDRFSGSKSGTSASLAISGLRSEDEADYYCAAWDHHRSGAVFGGGTKLTVLG
notes: also called MAB-1 IgG; parental antibody MAB-1
- binding result [1]: binds

B2: MAB-8_h_FabCys (Fab, V domains shown)
VH: EVQLVESGGGLVQPGGSLRLSCAASGFTFRSHYMTWVRQAPGKGLEWVANIDYEGTRTYYAESVKGRFTISRDNAKNSLYLQMNSLRAEDTAVYYCARGYSAEFAHRSGLDVWGQGTLVTVSS
VL: QSVLTQPPSASGTPGQRVTISCSGSSSNIGSNYVYWYQQLPGTAPKLLIYRNNQRPSGVPDRFSGSKSGTSASLAISGLRSEDEADYYCAAWDRHSHGAVFGGGTKLTVLG
notes: Tagless disulfide-bridged human FabCys produced in HEK293 cells; also called MAB-8 Fab-Cys
- EC50 [2]: 3.2 nM
- EC50 [3]: 5.5 nM
- kon [4]: 464000 M⁻¹ s⁻¹
- Kd [5]: 0.3 nM
- koff [5]: 0.000258 s⁻¹
- kon [5]: 802000 M⁻¹ s⁻¹
- koff [6]: ~5.07e-05 s⁻¹
- Kd [7]: ~0.1 nM

B3: MAB-7_h_FabCys (Fab, V domains shown)
VH: EVQLVESGGGLVQPGGSLRLSCAASGFTFKSYYMSWVRQAPGKGLEWVANIDYQSQHAYYAESVKGRFTISRDNAKNSLYLQMNSLRAEDTAVYYCARGYSAEFAHRSGLDVWGQGTLVTVSS
VL: QSVLTQPPSASGTPGQRVTISCSGSSSNIGSNYVYWYQQLPGTAPKLLIYRNNQRPSGVPDRFSGSKSGTSASLAISGLRSEDEADYYCAAWDRHSHGAVFGGGTKLTVLG
notes: Tagless disulfide-bridged human FabCys produced in HEK293 cells; also called MAB-7 Fab-Cys
- EC50 [2]: 3.7 nM
- EC50 [3]: 6.1 nM
- Kd [4]: 0.4 nM
- koff [4]: 0.000158 s⁻¹
- kon [4]: 370000 M⁻¹ s⁻¹
- Kd [5]: 1.3 nM
- koff [5]: 0.000627 s⁻¹
- kon [5]: 499000 M⁻¹ s⁻¹

B4: MAB-9_h_FabCys (Fab, V domains shown)
VH: EVQLVESGGGLVQPGGSLRLSCAASGFTFRSHYMTWVRQAPGKGLEWVANIDYEGTRTYYAESVKGRFTISRDNAKNSLYLQMNSLRAEDTAVYYCARGYSAEFAHRSGLDVWGQGTLVTVSS
VL: QSVLTQPPSASGTPGQRVTISCSGSSSNIGINYVYWYQQLPGTAPKLLIYRNNIRPSGVPDRFSGSKSGTSASLAISGLRSEDEADYYCAAWDRHSHGAVFGGGTKLTVLG
notes: Tagless disulfide-bridged human FabCys produced in HEK293 cells; also called MAB-9 Fab-Cys
- EC50 [2]: 4.7 nM
- EC50 [3]: 7.7 nM
- kon [4]: 446000 M⁻¹ s⁻¹
- Kd [5]: 0.2 nM
- koff [5]: 0.000122 s⁻¹
- kon [5]: 724000 M⁻¹ s⁻¹
- koff [8]: ≤ 5e-05 s⁻¹
- Kd [7]: ≤ 0.1 nM

B5: MAB-12_h_FabCys (Fab, V domains shown)
VH: EVQLVESGGGLVQPGGSLRLSCAASGFTFRSHYMTWVRQAPGKGLEWVANIDYEGTRTYYAESVKGRFTISRDNAKNSLYLQMNSLRAEDTAVYYCARGYSAEFAHRSGLDVWGQGTLVTVSS
VL: QSVLTQPPSASGTPGQRVTISCSGSSSNIGANYVYWYQQLPGTAPKLLIYRNNQRPSGVPDRFSGSKSGTSASLAISGLRSEDEADYYCAAWDRHSHGAVFGGGTKLTVLG
notes: Tagless disulfide-bridged human FabCys produced in HEK293 cells; also called MAB-12 Fab-Cys
- EC50 [2]: 4.1 nM
- EC50 [3]: 5.7 nM
- kon [4]: 445000 M⁻¹ s⁻¹
- Kd [5]: 0.3 nM
- koff [5]: 0.000188 s⁻¹
- kon [5]: 650000 M⁻¹ s⁻¹
- koff [8]: ≤ 5e-05 s⁻¹
- Kd [7]: ≤ 0.1 nM

B6: MAB-13_h_FabCys (Fab, V domains shown)
VH: EVQLVESGGGLVQPGGSLRLSCAASGFTFRSHYMTWVRQAPGKGLEWVANIDYEGTRTYYAESVKGRFTISRDNAKNSLYLQMNSLRAEDTAVYYCARGYSAEFAHRSGLDVWGQGTLVTVSS
VL: QSVLTQPPSASGTPGQRVTISCSGSSSNIGINYVYWYQQLPGTAPKLLIYRNNQRPSGVPDRFSGSKSGTSASLAISGLRSEDEADYYCAAWDRHSHGAVFGGGTKLTVLG
notes: Tagless disulfide-bridged human FabCys produced in HEK293 cells; also called MAB-13 Fab-Cys
- EC50 [2]: 5.2 nM
- EC50 [3]: 8.3 nM
- kon [4]: 413000 M⁻¹ s⁻¹
- Kd [5]: 0.2 nM
- koff [5]: 0.000134 s⁻¹
- kon [5]: 705000 M⁻¹ s⁻¹
- koff [8]: ≤ 5e-05 s⁻¹
- Kd [7]: ≤ 0.1 nM

B7: MAB-16_h_FabCys (Fab, V domains shown)
VH: EVQLVESGGGLVQPGGSLRLSCAASGFTFRSHYMTWVRQAPGKGLEWVANIDYEGTRTYYAESVKGRFTISRDNAKNSLYLQMNSLRAEDTAVYYCARGYSAEFAHRSGLDVWGQGTLVTVSS
VL: QSVLTQPPSASGTPGQRVTISCSGSSSNIGSNYVYWYQQLPGTAPKLLIYRNNQRPSGVPDRFSGSKSGTSASLAISGLRSEDEADYYCAGWDRRLHGAVFGGGTKLTVLG
notes: Tagless disulfide-bridged human FabCys produced in HEK293 cells; also called MAB-16 Fab-Cys
- EC50 [2]: 2 nM
- EC50 [3]: 3.3 nM
- Kd [4]: 0.2 nM
- koff [4]: 7.92e-05 s⁻¹
- kon [4]: 478000 M⁻¹ s⁻¹
- Kd [5]: 0.3 nM
- koff [5]: 0.000272 s⁻¹
- kon [5]: 852000 M⁻¹ s⁻¹
